Assay: label from the status in PepcDB records
For “THANIQGLVKHVDYMAFSDQDTFLSVSNYAFDAFTFDFYASMLNAARLIIADEHTLLDTERLTDLILQENVNVMFATTALFNLLTDAGEDWMKGLRCILFGGERASVPHVRKALRIMGPGKLINCYGPTEGTVFATAHVVHDLPDSISSLPIGKPISN”, the protein production was “failed”.
With “TPHLVNLNEDPLMSECLLYYIKDGITRVGQADAERRQDIVLSGAHIKEEHCIFRSERSNSGEVIVTLEPCERSETYVNGKRVSQPVQLRSGNRIIMGKNHVFRFNHPEQARAEREKT” the protein production was “not failed”.
In the case of “TPLAEGAKAIETLCKLIKKGHIVAVKGIGGFHLVCDATKNRVVMELRERKKRPTKPFAVMFRSVFEIGKCTELSPIEEATILSPERPIVLISKRRPHRLEKFLISCDGVAPRVGTMGVFLPYSPLHSLLMEQAKIPLVFTSANLSGEPLIRDFKELCEKLSGVFDYYLDHDREILNPCDDSVVTIQNNKFQV”, the protein production is reported as “failed”.
With “TPLPHQLEVAQKVVEKMNGKAILADEVGLGKTVEAGLILKEYMIRGLAKKILILVPASLVSQWVKELQEKFLIPAVEQKKSYVWEQCDIVVSSIDTAKRSPHREIVLSIPYDLVIIDEAHKLKNSKTKNYEFVRNLVKKYCLLLTATPIQNRIEEIFNLVSLLKPGHL” the protein production was “failed”.
For “TPLSLTLDHWSEIRSRAHNLSVEIKKGPWRTFCASEWPTFDVGWPPEGTFDLTVIFEVKAIVFQDGPGSHPDQQPYITVWQDLVQNSPPWIK”, the protein production was “not failed”.
For “TQEYLAPKTTVRVGLVQWQMRSYKTLDDLFEQVEFFVDAVSDYKSDFVLFPEYFNAPLMSKYNDKGESQAIRGLAQYTEEIRDRFINLAISYNINIITGSMPLIKEDGLLYNAGFLCRRDGTYEMYEKLHVTPDEIKSWGLSGGKQLKTFDTDCAKIGILICYDVEFPELSRLMADQGMQILFVPFLTDTQNAYSRVRVCAQARAIENECFVVIAGSVGNLPRVHNMDIQYAQSGVFTPCDFAFPTDGKRAEATPNTEMILVSDVDLDLLNELHTYGSVRNLKDRRNDVYEVRFKKP”, the protein production was “failed”.
For “TSLEEITKAIMADSQNKVFTEKNIEPLFAAPKTARINIVGQAPGIKAQESRLYWNDKSGDRLREWMGVDYDTFYHSGYFAVIPMDFYYPGKGKSGDLPPRKGFAQKWHQPILDLLPDIQLTILIGNYAQKYYLHQKSSVKLTDTVAHYKKYLPDYFPLVHPSPRNQIWMSRHPWFEAQVVPDLKKIIQQIIQSS”, the protein production was “not failed”.
In the case of “TSSLHPTRGKLLKRFAQIGPYIREQQCQESQFFFDCLAVCVNKKVTPEKREFWGWWMELERNGEQLIYYYQVGLFDKNGDWVNQVISKKDVIESIHETLIRFHDFLQAAVSELEMTLVPDEKMSNFPLPL”, the protein production is reported as “not failed”.
For “TSSLQGNLLISVPRDFGLLFIAPNLPTFMAKHPHLHIEVEFNDKKIDLLSEGYDLALRIGYMEDSSLVSRKIGTTTVHFAASPNYLETNGIPQTPDDLEHHNGLLYKNAMNQVNWVGSRINQTQRFKIQSKVVSNSGFALL”, the protein production was “failed”.
With “TSTFYELFPKTFPKKLPIWTIDQSRLRKEYRQLQAQHHPDMAQQGSEQSSTLNQAYHTLKDPLRRSQYMLKLLRNIDLTQEQTSNEVTTSDPQLLLKVLDIHDELSQMDDEAGVKLLEKQNKERIQDIEAQLGQCYNDKDYAAAVKLTVELKYWYNLAKAFKDWAPGKQLEMNH” the protein production was “not failed”.
For “TSTMGNLQTAINDKSGTLASQNFLDADEQKRNAYNQAVSAAETILNKQTGPNTAKTAVEQALNNVNNAKHALNGTQNLNNAKQAAITAINGASDLNQKQKDALKAQANGAQRVSNAQDVQHNATELNTA”, the protein production was “not failed”.
With “TTLQVREQTARRTLAALGYNECVTYSFIDEAAARLFGGGSEAVRVENPISSEMTHLRPDLLPGLLRAAARNQARGFADIALCEIGPVFAGGEPGEQQLQATGLLVGAVAPRDPFGSRRPVDVYDAKADAEAVLAAVGAPARMQISRKVPGWWHPGRSGIVGLGPNVLATFGEVHPRILREMDVKGPAVAFTVLVANVPLPKVKTPTRPALKL” the protein production was “failed”.
With “TVVRYNPDNHADESFAARPALLWVHGMTDYFFHTEFAEFFHNAGFAVYGIDLRKCGRSYRPGQQWHYTSDLAHYFPDLTAAAEVISSTHPELVPVAHSTGGLIVPLWMSQMRTSNPAAIEKIPALVLNSPWLDMMYPPLFIKLITPMVRVLGKRSPTTIIPGGGLGAYGKSIHKNFYGEWDFDTTIKPVEGHKKSIGWLRAVMAGQAEIHHDHVNVGVDVLTLCSNKSWLKSEYTEDTNTSDAVLDVKHIQKWAPHLSSPSSRVDVEIIDNARHDIFLSRKPARDHASEVLNNWLQSK” the protein production was “failed”.
With “TYHRLALQRENASLNPVGQMVAVNGYKISVFVKGQGSQTLVFLSGAGTASPILDFKDVYDGFSKEYKIVVVERADYGYSEDTSKSRDVSVILSETRQSLAKSQVSGPYIILSHSMASLETLLWQENYPSEVKAVVCLDWAFPESYFQLKRHPQMLRLARWESQLGLLRLLPRQLYMPNENLSDSDRRLYQEIAYRQLLSQAMLNESLCAKENDKKVNSTSIKSQMPVLLMVSNGKGTGFGQEQWRHYATSFAKGQKNMEVTYYDSPHYFYHYQTKEMIRSIEEFVQE” the protein production was “failed”.
In the case of “VALAATRAFYWIEAQSPDAATAFAQRVFDLYFSDRLDTASPEAVSRLGPEVGLEPEALLAGIADPALKETVRKIGEDAVARGIFGSPFFLVDDEPFWGWDRMEMMAEWIRTGGW”, the protein production is reported as “failed”.
For “VDDTVNVANEYSRYPLENYQLDFYVDNSWGWLPWNWSDGIGKQVMYGLYAITNFIWTISLYVSNATGYLVQEAYSLDFISATADSIGKNMQTLAGVTPSGLSTEGFYVGFLLLLILVLGVYVVYTGLIKRETTKAIHAIVNFVMVFILSASFIAYAPDYIKKIN”, the protein production was “failed”.
For “VDIMLNTADISAAAILLPVEGAQLSELRQIPAEGGPVLHMLRLDSPQFSQFGEIYFSEVLPRRVKAWKRHSLMTQLFAVPVGCIHVVLYDGREKSPTSGRLAQVTLGRPDNYRLLRIPPQVWYGFAATGDTPALVANCTDIPHRQGESERAPQDAPFIPFSWAGADLSGTPVM”, the protein production was “not failed”.
With “VEASFCLGDNWQFLYVNDATCRMTEYSREQLLSMNLQDIDVDFALHDWEEIRQKNNYTFKTRYRSQSGRIFLVEMSLTFLEDQERRFSCVFVREKS” the protein production was “failed”.
In the case of “VELPTEYTEQFSSQPTLNSKPIIKFEFTGNSVDAPVLSMASKKFGIDFSILMSQIDYAGGVKFGFVIAEVEGDGEAITAAKCYLINNNVKVEVLGYVG”, the protein production is reported as “failed”.
In the case of “VEPQSQALLHAQPIISIRVWGVGRDSGRERDFAYVARDKLTQMLKCHVFRCEAPAKNIATSLHEICSKIMAERRNARCLVNGLSLDHSKLVDVPFQVEFPAPKNELVQKFQVYYLGNVPVAKPVGVDVINGALESVLSSSSREQWTPSHVSVAPATLTILHQQTEAVLGECRVRFLSFLAVGRDVHTFAFIMAAGPASFCCHMFWCEPNAASLSEAVQAACMLRYQKCLDARSQASTSCLPAPPAESVARRVGWTVRRGVQSLWGSLKPKRLGAHTP”, the protein production is reported as “failed”.
With “VFADKLDITVDQKKIILPYWLSRPVSYGAVIIVSGGETAQWSLLLEQFAKGLARNGWSVVLLNCTKNNSIPWINQLPEVISTLRQNNNKRIVLVHYGDQLNLALEYFSKPQSKMINGLVMLSAYDLNRNLQKVPRLRFPLFDIVGQFDYDMVRQQRKSREEKFKENSYLAIDIPGATHDYQYSQQLLLAFVHGWM” the protein production was “not failed”.
For “VFSSEDITETSPDKWLIDGDTPLDEVERAIGYELPEGDYETISGLLFDHANALLKTGDVIEIPLDFEPEDYLNNTSPTQRILRITVLEVERNVPVKLALALLE”, the protein production was “not failed”.
With “VFVGRCTGDMTEDELREFFSQYGDVMDVFIPKPFRAFAFVTFADDQIAQSLCGEDLIIKGISVHISNAEPKHNSN” the protein production was “not failed”.
With “VGQRSDSDHVMAEATTDKRQGHTRGRTGNDRRTQIIKVATELFREKGYYATSLDDIADRIGFTKPAIYYYFKSKEDVLFAIVNSIVDEALERFHAIAAGPGSPGERIHALLVEHTRTILRNLDANTLFYNERGLLSPEREREMRKREREYTEIMQRLYAEGVATGELLDVDPTVATATLLGAAIWTYRWYDPEGRLSADEVVEQITRLLLNGYRRPA” the protein production was “not failed”.
In the case of “VGRLDDLKRSPLFQNVPEDAMREALKVVTERNFQPDELVVEQDAEGEALHLVTTGVVRVSRVSLGGRERVLGDIYAPGVVGETAVLAHQERSASVRALTPVRTLMLHREHFELILRRHPRVLWNLAEMLARRVTFLNDELIAFGQNTEAALTHVFANLYRQRLAAGVPQPEVLPLGTQDIMARTSSSRETVSRVLKRLEAHNILEVSPRSVTLLDLAALEALSFEGAETD”, the protein production is reported as “not failed”.
For “VILKKIFIALIALVVIINTVSFTAVSASTPTWLEQTMNSNEPFIKEIEKETGKTRANITQTDLEAITALRVTGASDIPTNIDMLTHLTTLEVKSGTLSSVSNSVGNLKELKILVLNDNNLSTFPTIVFQLPKLEELQVSGGTIEEIPATITNMASHLKFLGILNNHLVKVPDAIFTTNWTNATGGDLDLMAAGNQIVTNIPANYISQFNNGNNLLEFYDNNYQKQDQLTTTPGYTIDVPVGTDFNQLTPDKTKLALTSGRTLLAQHEFEYYDDGSSSLIHNGVAAAPGQATIFIKSKFSTQSNKFARTQVTVNIIALNGGPITVKHEDTKGQELAPPVILNGKDGDPYTTTQKTFPGYTLVATPANQNGTFTMNPATVNYVYSANDYKLTSTFKDAQGQELKAPVVDTKDYHIQDNYTTTAATIPGYSLVSTPANQNGTFGAGNVTVNYVYKKDDYTLTSTYKDTNGQELKAPVVDATTYHYQDTYTTTAAVFPGYTLVATPTNATGTFGSSNITVNYVYQANGYQLTSTFKDQQGKTIAPDDVDAKTYHVNDPYTTTAKTIPGYTLVTTPANNQGNFGTSDITVDYVYKAEDYTLTSTYKDAQGKELKQPVVDSKKYHIQDNYSTSAAAIPGYTLVATPANETGTFHTSDVTVNYVYKLTDLKLTSTYKDAQGTELKAPVVDSKTYHIQDNYATTAAVIPGYTLVATPANQSGTFGSTDIQVNYVYQAVAYKLTSTYKDQQGNDLALPKVDTKTYHIQDGYTTSDIAIPGYTLVAAPTNQTGTFGASDVTVNYVYKANDYTLTSTYKDAQGKELKTPVIDSQKYHINDTYTTTGATIPGYTLVAAPANQSGTFGAANVTVNYVYKADDYTLTSTYKDANGKELKAPVVDSKTYHTKDNYSTSAATIPGYTLVAVPANQTGTFNTSNVTVNYVYKANEYTLTSTFKNVQGTELKPAIVKKGFIIKDGYATSGVTIPGYTLVATPSNKKGTFGASNVTVNYVYKANGYALITTYKDTQGKDLKPLAIDTKIYNINDPYTATALNIPGYTLTTTPANEKGVFGASDETVNYVYKANDYTLTTTYKDANGKELQAPKVDAKTYHIQDTYKTTAAVIPGYTLVATPKNDQGAFGANNVTVNYVYQTNDYTLTSTFKDAQGNELKAADVDAQKYHIHDTYTSKAAVIPGYTLEKTPTNETGTFNASDIQVNYVYKANDYQLTSTFKDQQGNEIALPTVDAKTYHIHDAYTTKARLIPGYSLVAAPKNQIGAFGTSDVTVNYVYKKDAIIKPITPAKPTILTIKTPASKVIKTKVVKQTLPKTGDDDAGLLNLLRLIGLVLILGVFLAVGSKKLR”, the protein production was “failed”.
For “VLKQGYMMKKGHRRKNWTERWFVLKPNIISYYVSEDLKDKKGDILLDENCCVESLPDKDGKKCLFLVKCFDKTFEISASDKKKKQEWIQAIHSTIHLLKLGS”, the protein production was “not failed”.
For “VLMDEGAVLTLAADLSSATLDISKQWSNVFNILRENDFEPKFLCEVKLAFKCDGEIKTFSDLQSLRKFASQKSSMKELLKDVLPQKE”, the protein production was “not failed”.
For “VLYYKDFKIGLGKNQKENIKLLQDARANDLWMHVRNIPGSHLIVFCQKNAPKDDVIMELAKMLIKMQKDAFNSYEIDYTQRKFVKIIKGANVIYSKYRTISLKDT”, the protein production was “failed”.
For “VMVFISSSLNSFRSEKRYSRSLTIAEFKCKLELVVGSPASCMELELYGADDKFYSKLDQEDALLGSYPVDDGCSIHVIDHSG”, the protein production was “not failed”.
